Experimental data: PMC10172135

Key:
[1] = target: FRP-like protein (FRPL) from Pseudomonas borbori (Pseudomonas borbori); assay: native MS; 4 µM (monomer) in 200 mM ammonium acetate pH 6.8, Q Exactive, positive ion mode
[2] = target: orange carotenoid protein OCP1 from Synechocystis sp. PCC 6803 (Synechocystis sp. PCC 6803)

| stoichiometry N [1] | acceleration of OCP1’s recovery from photoconversion (20 °C, equimolar ratio of OCP1 to FRPL), compared to OCP1 alone [2] | Substance |
| --- | --- | --- |
| 2 |  | FRP-like protein (FRPL) from Pseudomonas borbori (natural protein) |
|  | 93% | FRPL from a delta-proteobacterium of the Desulfobacteraceae family (natural protein) |
